Data published in patent US20130149300A1 (ICON GENETICS, published 2013).

B1: Anti-Ebola virus produced in -XF plants (antibody)
heavy: not shown
light: QLVLTQSSSASASLGASVKLTCTLSRQHSTYTIEWYQQQPAKPPRYVMELKKDGSHSTGDGIPDRFSGSSSGADRYLTISSLQSEDEADYYCGVGDTIKEQFVYVFGTGTKVTVLGQPKAAPSVTLFPPSSEELQANKATLVCLISDFYPGAVTVAWKADSSPVKAGVETTTPSKQSNNKYAASSYLSLTPEQWKSHRSYSCQVTHEGSTVEKTVAPTECS
B2: Anti-Ebola virus produced in -XF +gal plants (antibody)
heavy: not shown
light: B1 light
B3: Anti-Ebola virus produced in wild type plants (antibody)
heavy: not shown
light: B1 light

Target: human C1q (human, UniProt P02745 23-245; P02746 28-253; P02747 29-245)
Test: C1q binding ELISA, mAb coated at 2.5 µg/ml, human C1q added

Chain of human C1q (P02745 23-245 limits assumed, chain 1 of 3): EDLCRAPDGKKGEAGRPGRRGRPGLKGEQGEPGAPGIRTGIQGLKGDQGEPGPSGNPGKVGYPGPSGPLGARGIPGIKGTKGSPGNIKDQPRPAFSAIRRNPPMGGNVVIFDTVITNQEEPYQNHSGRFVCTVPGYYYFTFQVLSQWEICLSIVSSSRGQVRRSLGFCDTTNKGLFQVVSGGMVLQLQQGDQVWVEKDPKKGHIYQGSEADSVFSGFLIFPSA
Chain of human C1q (P02746 28-253 limits assumed, chain 2 of 3): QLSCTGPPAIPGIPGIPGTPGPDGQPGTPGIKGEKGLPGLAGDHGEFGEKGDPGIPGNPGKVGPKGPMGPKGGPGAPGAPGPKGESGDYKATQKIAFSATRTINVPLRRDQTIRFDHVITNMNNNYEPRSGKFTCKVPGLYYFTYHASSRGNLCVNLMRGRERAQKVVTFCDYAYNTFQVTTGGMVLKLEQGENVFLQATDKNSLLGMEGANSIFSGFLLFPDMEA
Chain of human C1q (P02747 29-245 limits assumed, chain 3 of 3): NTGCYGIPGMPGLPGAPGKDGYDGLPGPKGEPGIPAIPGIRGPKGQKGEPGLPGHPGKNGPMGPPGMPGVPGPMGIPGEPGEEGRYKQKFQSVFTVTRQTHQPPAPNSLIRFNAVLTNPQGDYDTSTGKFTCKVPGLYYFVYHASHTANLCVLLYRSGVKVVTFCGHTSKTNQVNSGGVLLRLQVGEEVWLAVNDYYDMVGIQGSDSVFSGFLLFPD

| Binder | Absorbance [absorbance at 450 nm] |
| --- | --- |
| B1 | 0.49 |
| B2 | 0.96 |
| B3 | 0.92 |

Target: T1, Recombinant human FcγRI (human, UniProt P12314 16-288)
T1 construct: also called FcγRI (CD64); CD64
Test: SPR (Biacore), receptor amine-coupled to CM5 chip, mAb flowed, 1:1 fit

T1 sequence (P12314 16-288 limits assumed): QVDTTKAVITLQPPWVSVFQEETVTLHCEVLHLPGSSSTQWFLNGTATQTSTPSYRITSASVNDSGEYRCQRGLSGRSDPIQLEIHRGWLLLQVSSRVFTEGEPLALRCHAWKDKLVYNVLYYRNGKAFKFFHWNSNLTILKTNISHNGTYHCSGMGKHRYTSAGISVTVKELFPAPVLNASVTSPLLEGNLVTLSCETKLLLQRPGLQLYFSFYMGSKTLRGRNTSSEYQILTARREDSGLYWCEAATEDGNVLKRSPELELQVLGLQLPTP

| Binder | Kd [nM] |
| --- | --- |
| B1 | 16 |
| B2 | 15 |
| B3 | 42 |

Target: T2, Recombinant human FcγRIIIA (human, UniProt P08637 17-208)
T2 construct: also called FcγRIIIA (CD16); CD16
Test: as above

T2 sequence (P08637 17-208 limits assumed): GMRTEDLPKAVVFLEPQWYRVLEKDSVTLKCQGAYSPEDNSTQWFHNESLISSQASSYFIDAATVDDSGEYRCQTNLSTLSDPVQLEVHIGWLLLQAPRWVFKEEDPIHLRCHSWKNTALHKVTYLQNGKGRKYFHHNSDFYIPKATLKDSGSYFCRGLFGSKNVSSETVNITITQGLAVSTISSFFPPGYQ

| Binder | Kd [nM] |
| --- | --- |
| B1 | 25 |
| B2 | 26 |
| B3 | 72 |
